To fix the notation:
T1: human CXCR5 (human, UniProt P32302 1-372)
T1 construct: whole, on cells; also called hu-CHO; CHO-CXCR5 cells
T1 sequence (looked up): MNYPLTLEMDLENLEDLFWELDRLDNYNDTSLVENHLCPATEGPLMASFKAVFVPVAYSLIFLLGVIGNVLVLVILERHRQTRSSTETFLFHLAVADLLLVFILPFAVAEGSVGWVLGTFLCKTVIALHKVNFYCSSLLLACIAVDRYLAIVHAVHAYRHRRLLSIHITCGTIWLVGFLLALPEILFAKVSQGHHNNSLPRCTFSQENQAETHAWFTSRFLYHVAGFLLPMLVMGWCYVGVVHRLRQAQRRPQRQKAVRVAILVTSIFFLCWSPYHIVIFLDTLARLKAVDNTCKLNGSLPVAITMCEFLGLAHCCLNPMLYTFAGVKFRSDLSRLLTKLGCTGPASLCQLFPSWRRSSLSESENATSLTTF

T2: murine CXCR5 (murine, UniProt Q04683 1-374)
T2 construct: whole, on cells; Endogenous receptor on mouse spleen cells cultured with LPS
T2 sequence (looked up): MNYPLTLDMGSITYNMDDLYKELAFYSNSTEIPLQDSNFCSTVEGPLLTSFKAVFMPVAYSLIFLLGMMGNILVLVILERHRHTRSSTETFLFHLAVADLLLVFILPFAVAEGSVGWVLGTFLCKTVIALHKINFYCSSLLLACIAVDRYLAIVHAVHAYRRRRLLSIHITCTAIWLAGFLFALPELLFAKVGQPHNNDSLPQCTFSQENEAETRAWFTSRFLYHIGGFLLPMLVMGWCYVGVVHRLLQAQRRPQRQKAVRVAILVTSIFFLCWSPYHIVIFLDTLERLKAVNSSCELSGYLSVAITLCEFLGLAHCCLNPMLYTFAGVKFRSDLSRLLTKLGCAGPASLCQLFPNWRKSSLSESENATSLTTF

B1: 52B10 (antibody, V domains shown)
VH: EVQLLESGGGLVQPGGSLRLSCAGSESTFGDSWLNWVRQAPGKGLEWVANINKDGSKKEYVESVKGRFTISRDNAKKSVYLQMNSLRVEDTAVYYCLLKGVWGQGTLVTVSS
VL: AIQLTQSPSFLSASVGDRVTITCRASQGISSYLAWYQQKPGKAPKLLIYAASTLQSGVPSRFSGSGSGTEFTLTISSLQPEDFATYYCQQLNSYPITFGPGTKVDIK
notes: tested as human IgG
B2: 12D11 (antibody, V domains shown)
VH: EVQLVQSGAEVKKPGASVKVSCKASGYTFTGYYLNWVRQAPGQGLEWMGWINPNNGGTNYAQRFQGRVTMTRDTSISTAYMDLSRLRSDDTAVYYCVRGTRKYYHDSNGRRRDYYYGMDVWGQGTTVTVSS
VL: AIRMTQSPSSLSASVGDRVTITCRASQSISSYLNWYQQKPGKAPKLLIYAASSLQSGVPSKFSGSGSGTEFTLTISSLQPEDFATYYCQQYKFYPPNFGGGTKVEI
notes: tested as human IgG
B3: 16B7 (antibody, V domains shown)
VH: QVQLVESGAEVKKPGASVKVSCKASGYTFTSYYVHWVRQAPGQGLEWMGIINPSGGTTSYAQKFQGRVTMTRDTSTSTVYMELSSLRSEDTAVYYCVRDRRVVAATTPSAFDVWGQGTMVTVSS
VL: QSVVTQPPSVSAAPGQRVTISCSGSTSNIGSNYVSWYHQLPGTAPKLLVYHNDKRPSGIPDRFSGSKSGTSATLGITGLQTGDEADYYCGTWDSSLSVWVFGGGTKVTVL
notes: tested as human IgG
B4: PC12 (antibody, V domains shown)
VH: EVQLLESGAEVKKPGASVKVSCKASGYTFTSYYVHWVRQAPGQGLEWMGIINPSGGTTSYAQKFQGRVTMTRDTSTSTVYMELSSLRSEDTAVYYCVRDRRVVAATTPSAFDVWGQGTMVTVSS
VL: QSVVTQPPSVSAAPGQKVTISCSGSSSNIGNNYVSWYQQLPGTAPKLLIYDNNKRPSGIPDRFSGSKSGTSATLGIVGLQTGDEADYYCATWDGSLSTFLFGPGTKLTVL
notes: tested as human IgG
B5: 52C6 (antibody, V domains shown)
VH: QVQLVESGGGLVQPGGSLRLSCAASGFTFDDYAMHWVRQAPGKGLQWVAVISHDGSAKYYADSVKGRFTISRDNAKNSLYLQMNSLRAEDTAVYYCARSRWGDNWGQGTLVTVSS
VL: SYELMQPASVSGSPGQSITISCTGTSSDVGGYNYVSWYQQHPGKAPKLMIYDVSKRPSGVSNRFSGSKSGNTASLTISGLQAEDEADYYCSSYTSSSTPYVFGTGTKLTVL
notes: tested as human IgG
B6: 12B11 (antibody, V domains shown)
VH: EVQLVESGGGLVKPGRSLRLSCTASGFPFGDYAMSWFRQAPGKGLEWVALISYDGRNNYYADSVKGRFTISRDNSKNTLYLQMNSLRAEDTAVFYCARDRMRGPGGRFYYYHAMDVWGQGTTVTVSS
VL: SYELMQPPSVSRGLRQTATLTCAGTRNDVGNEGASWLQQHQGHPPKLLSYRDTNRPSGISDRFSASRSGNTASLTISGLQPEDEADYYCSAWDSSLRAWVFGGGTKLTVL
notes: tested as human IgG; also called 14E10
B7: 12G10 (antibody, V domains shown)
VH: EVQLVESGGGVVQPGRSLRLSCAASGFTFSSYAMHWVRQAPGKGLEWVAVISYDGSNKYYADSVKGRFTISRDNSKNTLYLQMNSLRAEDTAVYYCARIAVAGTHFDYWGQGTLVTVSS
VL: SYELMQPPSVSGTPGQRVTISCSGSTSNVGSNTVNWYRQFPGTAPKLLIYANNQRPSGVPDRFSGSKSGTSASLAISGLQSENEADYYCAAWDDSLNGYVFGTGTKLTVL
notes: tested as human IgG
B8: 52H9 (antibody, V domains shown)
VH: QVQLVESGGGVVQPGRSLRLSCAASGFTFSSYGMHWVRQAPGKGLEWVAVISYDGSNKYYADSVKGRFTISRDNSKNTLYLQMNSLRAEDTAVYYCAKLSGPTAKFDYWGQGTLVTVSS
VL: QSVLTQPASVSGSPGQSVTISCTGTSRDVGGYNFVSWYQQHPGKAPKLMIYDVSNRPSGVSNRFTGSKSGNTASLTISGLQAEDEADYHCSSYRRGDTLVFGGGTKLTVL
notes: tested as human IgG
B9: 13E4 (antibody, V domains shown)
VH: QITLKESGGGVVQPGRSLRLSCAASGFTFSSYGMHWVRQAPGKGLEWVAVISYDGSNKYYADSVKGRFTISRDNSKNTLYLQMNSLRAEDTAVYYCANNGWATYPDYWGQGTLVTVSS
VL: QPVLTQPASVSGSPGQSITISCTGTSSDVGGYNYVSWYQQHPGKAPKLMIYDVSNRPSGVSNRFSGSKSGNTASLTISGLQAEDEADYYCSSYTSSSTLVFGGGTKLTVL
notes: tested as human IgG
B10: 16E3 (antibody, V domains shown)
VH: QVQLVESGGGVVQPGRSLRLSCAASGFTFSSNGMHWVRQAPGKGLEWVAAISYNGRNQYYADSLKGRFTISRDNSKNSLYLQMNSLRAEDTAVYYCATPAATLDYWGQGTLVTVSS
VL: QSVLTQPASVSGSPGQSITISCTGTSSDVGGYNYVSWYQHHPGKAPKLMIYDVTYRPSGVSNRFSGSKSGNTASLTISGLQAEDEADYYCSSYTSSSTLVFGTGTKVTVL
notes: tested as human IgG
B11: 11F3 (antibody, V domains shown)
VH: QVQLVESGGGVVQPGRSLRLYCAASGFIFSSYAIHWVRQAPGKGLEWVAVISYDGSKKYYADSVEGRFTISRDNSKNSLYLQMNSLRVDDTAVYYCAAHRQLGYWGQGTLVTVSS
VL: QSVLTQPPSASGSPGQSVTISCTGTSSDVGGYNYVSWYQQHPGKAPKLMIYDVSKRPSGVSNRFSGSKSGNTASLTISGLQAEDEADYYCSSYTSSSTLVFGGGTKLTVL
notes: tested as human IgG
B12: 52D6 (antibody, V domains shown)
VH: EVQLLESGGGLVQPGRSLRLSCAASGFNFDAYAMHWVRQAPGKGLEWVSGISWNSGYIAYADSVEGRFAISRDNSKNTVFLQMNSLRAEDTAIYYCARDRWLSYWGQGTLVTVSS
VL: QSVLTQPASVSGSPGQSITISCTGTSSDVGGYNYVSWYQQHPGKAPKLMIYDVSKRPSGVSNRFSGSKSGNTASLTVSGLQAEDEAEYYCSSYAGSNFVVFGGGTKLTVL
notes: tested as human IgG
B13: 52A9 (antibody, V domains shown)
VH: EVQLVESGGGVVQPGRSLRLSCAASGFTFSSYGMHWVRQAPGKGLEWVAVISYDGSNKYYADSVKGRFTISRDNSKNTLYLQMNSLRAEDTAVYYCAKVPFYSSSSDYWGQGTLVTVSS
VL: QSVVTQPASVSGSPGQSITISCTGTSSDVGGSKYVSWFQQHPGKAPKLMIYDVSNRPSGVSYRFSGSKSGNTASLTISGLQAEDEADYYCTSYTSSRTWVFGGGTKLTVL
notes: tested as human IgG
B14: 12C1 (antibody, V domains shown)
VH: EVQLLESGGGLVKPGGSLRLSCAASGFTFNNYAMHWVRQAPGKGLEWLTVISFYGGKQYYADSVKGRFTISRDNSRNTLYLQMNSLRADDTAVYYCARDNGRHFDYWGQGTLVTVSS
VL: QPVLTQPASVSGSPGQSITISCTGTSSDVGGYNYVSWYQQHPGKAPKLMIYDVSKRPSGVSNRFSGSKSGNTASLTISGLQAEDEADYYCTSYRSGRTYVFGSGTKVTVL
notes: tested as human IgG
B15: 11D3 (antibody, V domains shown)
VH: QVQLVQSGGGVVQPGRSLRLSCAASGFTFSNFGMHWVRQAPGKGLEWVAVISYDGSNKYYADSVKGRFTISRDNSKNTLYLQMNSLRAEDTAVYYCARNTVTYHDVWGQGTTVTVSS
VL: QPVLTQPASVSGSPGQSITISCTGTSSDVGGYNYVSWYQQHPGKAPKLMINDVSNRPSGVSSRFSGSKSGNTASLTISGLQAEDEADYYCSSYTSSSTLVFGGGTKLTVL
notes: tested as human IgG

Several values for one entry are separate records, joined by “and”; a condition that tells them apart may be missing. Equal values may be shown once.

The first assay concerns the target T1, human CXCR5. Put plainly: flow cytometry on CHO-CXCR5 cells, IgG titration. From the text: This example describes a cellular binding assay to determine the EC₅₀ for anti-CXCR5 antibodies binding to human CXCR5. […] In this example, CHO-CXCR5 cells were lifted from culture flasks using non-enzymatic Cell Dissociation Buffer—PBS based (Life Technologies #13151-014). Cells were resuspended in FACS Buffer (2% Fetal Bovine Serum in PBS) at 1×10⁶ cells/ml and […] were aliquoted into the wells of a 96-well plate. Plated cells were spun down and the supernatant discarded. Cells were resuspended in 30 μl FACS Buffer serially diluted concentrations of CXCR5 IgG in triplicate. Plates were incubated for 1 hr at 4° C. and then washed 2× with FACS Buffer. Cells were resuspended in 50 μl goat anti-human IgG (γ-chain specific)-PE conjugated secondary antibody (Southern Biotech #2040-09) diluted 1:500 in FACS Buffer. Cells were further incubated for 30 min at 4° C. and then washed 1× with FACS Buffer. The cells were resuspended in a final volume of 30 μl FACS Buffer and analyzed using the Intellicyt Flow Cytometer. Median fluorescence in the FL-2H channel was determined using FlowJo software and EC₅₀ value was determined by plotting the data in GraphPad Prism and analyzing using a variable slope non-linear regression.
As to B1, the EC50 was 0.5 nM and 0.46 nM.

For the molecule B2, the EC50 is 2.1 nM.

The molecule B3 gave an EC50 of 88 nM.

For the molecule B4, the midpoint of the response, the EC50, lay at 4.2 nM.

B5: the EC50 is 3 nM and 2.8 nM.

On to B6, for which the 50% effective concentration (EC50) is 53 nM and 57 nM.

In the case of B7, the EC50 was found to be 0.5 nM.

Turning to B8, the concentration giving a half-maximal response (EC50) is 4 nM.

B9 yielded an EC50 of 0.9 nM.

In the case of B10, the concentration giving a half-maximal response (EC50) is 250 nM.

As for B11, the midpoint of the response, the EC50, lay at 13 nM.

As to B12, the response was half-maximal at 24 nM (EC50).

In the case of B13, the EC50 amounted to 31 nM.

B14 registered an EC50 of 12 nM.

Molecule B15 displayed a half-maximal effective concentration (EC50) of 2.7 nM.

For a further assay, the target named is T2, murine CXCR5. Kind of assay: flow cytometry on LPS-cultured mouse spleen cells, IgG titration. The procedure:
In this example, mouse spleen cells were harvested from either C57B1/6 or athymic nu/nu mice. Cells were cultured at 2×10⁶ per ml with LPS at 10 micrograms per ml in RPMI+10% FCS for up to 4 days at 37° C. in 5% CO2. Cells were harvested, washed and resuspended in FACS Buffer (2% Fetal Bovine Serum in PBS) at 1×10⁶ cells/ml and 50 μl (0.5×10⁵ cells) were aliquoted into the wells of a 96-well plate. Plated cells were spun down and the supernatant discarded. Cells were resuspended in 30 μl FACS Buffer containing serially diluted concentrations of CXCR5 IgG in triplicate. Plates were incubated for 1 hr at 4° C. and then washed 2x with FACS Buffer. Cells were resuspended in 50 μl goat anti-human IgG (γ-chain specific)-PE conjugated secondary antibody (Southern Biotech #2040-09) diluted 1:500 in FACS Buffer. Cells were further incubated for 30 min at 4° C. and then washed 1× with FACS Buffer. The cells were resuspended in a final volume of 30 μl FACS Buffer and analyzed using the Intellicyt Flow Cytometer. Median fluorescence in the FL-2H channel was determined using FlowJo software and EC₅₀ value was determined by plotting the data in GraphPad Prism and analyzing using a variable slope non-linear regression.
Molecule B7 returned a half-maximal effective concentration (EC50) of 2.5 nM.

Turning to B9, a half-maximal response (EC50) required 5.5 nM.

The record behind these values is patent US20160053014A1 (SORRENTO THERAPEUTICS, published 2016).
